The target of this data set is T1, p82 (r82; Teb1-like RPA1-related telomerase holoenzyme subunit p82) (Tetrahymena thermophila, UniProt D2CVN6 1-701).
T1 sequence: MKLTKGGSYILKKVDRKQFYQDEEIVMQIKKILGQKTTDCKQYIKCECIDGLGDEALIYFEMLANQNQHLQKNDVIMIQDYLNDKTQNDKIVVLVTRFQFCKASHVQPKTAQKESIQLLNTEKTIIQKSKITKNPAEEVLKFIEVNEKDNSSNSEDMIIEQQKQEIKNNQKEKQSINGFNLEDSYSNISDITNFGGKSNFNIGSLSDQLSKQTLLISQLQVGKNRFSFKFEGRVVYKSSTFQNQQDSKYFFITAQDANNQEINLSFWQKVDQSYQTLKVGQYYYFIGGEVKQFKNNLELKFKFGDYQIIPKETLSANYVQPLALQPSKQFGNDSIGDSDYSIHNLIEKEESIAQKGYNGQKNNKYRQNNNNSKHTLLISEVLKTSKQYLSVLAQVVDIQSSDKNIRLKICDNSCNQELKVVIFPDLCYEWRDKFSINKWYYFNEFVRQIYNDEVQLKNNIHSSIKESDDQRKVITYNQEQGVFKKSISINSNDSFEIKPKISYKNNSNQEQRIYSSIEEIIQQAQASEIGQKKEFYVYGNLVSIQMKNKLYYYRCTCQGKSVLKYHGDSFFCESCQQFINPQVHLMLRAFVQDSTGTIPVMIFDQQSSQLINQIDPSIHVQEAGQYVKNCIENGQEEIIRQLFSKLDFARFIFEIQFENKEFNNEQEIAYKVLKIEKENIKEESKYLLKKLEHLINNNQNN
Description: EMSA.

B1: dsTelo3 (dsDNA)
DNA 1: CCCCAACCCCAACCCCAA
DNA 2: TTGGGGTTGGGGTTGGGG
For B1, the binding result is on record as “no binding”.

The values are drawn from paper PMC2913470.
